Assay in all cases: ITC
(ITC needs no label: the signal is the heat of the interaction.)

Assay [1] has as its target mouse UHRF1 PHD finger (residues 304–372) (mouse) (UniProt Q8VDF2).
The target in assay [2] is T1, mouse UHRF1 PHD finger (residues 304–372) (mouse, UniProt Q8VDF2 304-372).
T1 sequence (looked up): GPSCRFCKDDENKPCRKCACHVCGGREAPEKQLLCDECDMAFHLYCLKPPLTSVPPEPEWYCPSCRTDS

For assay [3], the target named is T2, mouse UHRF1 PHD finger (residues 304–372) L337A (mouse, UniProt Q8VDF2 304-372, L337A).
T2 sequence (looked up): T1 sequence (looked up) with L34A

Substitutions are numbered along the chain they refer to. Names may count otherwise.

What is called Kd is the constant that tells how readily two partners part at equilibrium. Read a low Kd as higher affinity. In assay [1], “N-terminal tail of PAF15 (PCNA-associated factor 15) (peptide)” registered a Kd of 3520 nM.
As for KRRVRTLLSVLKDPIAKMRRLVRIEQRQKRLEGN (peptide, UniProt Q8QZY3 85-118, looked up) [mDPPA3 residues 85–118], in assay [2], the Kd turned out to be 45 nM.

B1: mDPPA3 residues 76–127 followed by an additional Trp (mDPPA3 76–128W) (domain or fragment, mouse)
chain: RREVQSAFPKRRVRTLLSVLKDPIAKMRRLVRIEQRQKRLEGNEFERDSEPFW
As to B1, the equilibrium dissociation constant (Kd) in assay [2] was 27.7 nM; in assay [3], more than 43000 nM.

B2: mDPPA3 76–128W L91A/V94A (domain or fragment, mouse)
chain: B1 chain with L16A, V19A
Regarding B2, in assay [2], binding was put at a Kd of 1080 nM.

B3: mDPPA3 76–128W R104A (domain or fragment, mouse)
chain: B1 chain with R29A
With B3, the binding result in assay [2] is reported as “binds”.

B4: mDPPA3 76–128W R89A (domain or fragment, mouse)
chain: B1 chain with R14A
B4 returned a dissociation constant Kd in assay [2] of 361 nM. In other words, the sub-micromolar range.

Values taken from PMC9757060 (Nucleic Acids Research, 2022).
